Results as given in patent US12723255B2, “Herbicide tolerance genes and methods of use thereof” (priority 2014, dated 2026).
Numbering of substitutions follows the chain as printed. Several values for one entry are separate records, joined by “and”; a condition that tells them apart may be missing. Identical values can stand only once. Like-named read-outs stand apart in the source and are kept apart here.

Tests used:
[1] = kinetic analysis, non-endpoint assay at 23° C.; format: biochemical
Method in brief: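 Purified C-terminal 6-His-tagged recombinant enzymes expressed in bacteria; quizalofop-P or 2,4-D as substrate. Vmax reported as specific activity (umol herbicide product mg enzyme-1 min-1) and Km as mM herbicide substrate, with standard error.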

F1 hybrid maize plants [2] = assay: efficacy field trial for quizalofop-P tolerance and clethodim sensitivity; format: in vivo; settings: scale 0 to 100; for average injury rating, V8 Growth Stage, 1x Clethodim: clethodim 0.25 lb ai/acre at V8, volunteer control; for average injury rating, V4 Growth Stage, 4x Quizalofop / average injury rating, V8 Growth Stage, 4x Quizalofop: 0.32 lb ai/acre at VE-V2, V4, V8; for average injury rating, V4 Growth Stage, 4x Quizalofop / average injury rating, V8 Growth Stage, 4x Quizalofop / average injury rating, V4 Growth Stage, 8x Quizalofop / average injury rating, V8 Growth Stage, 8x Quizalofop / average injury rating, V4 Growth Stage, 16x Quizalofop / average injury rating, V8 Growth Stage, 16x Quizalofop: with CTP unless label says no CTP; for average injury rating, V4 Growth Stage, 8x Quizalofop / average injury rating, V8 Growth Stage, 8x Quizalofop: 0.64 lb ai/acre at VE-V2, V4, V8; for average injury rating, V4 Growth Stage, 16x Quizalofop / average injury rating, V8 Growth Stage, 16x Quizalofop: 1.28 lb ai/acre at VE-V2, V4, V8
Protocol: Separate trait efficacy field trials for quizalofop-P and 2,4-D were conducted at two locations cach with F1 hybrid transgenic plants produced by crossing an inbred plant containing maize event MON89034 with an R1 plant containing MON-HT55 (with a CTP), MON-HTI (with or without a CTP), MON-HT2 (with or without a CTP), MON-HT3 (with a CTP), MON-HT4 (with a CTP), MON-HT5 (with a CTP), MON-HT6 (with a CTP), or MON-HT7 (with a CTP). Transgenic F1 hybrid plants containing maize events NK603×MON89034 were used for comparison as a control.
In the efficacy field trial for quizalofop-P tolerance and clethodim sensitivity, one of four herbicide treatments was used: (1) quizalofop-P (Assure II) at 0.32 lb ai/acre (4×) plus 0.25% v/v non-ionic surfactant (NIS) applied at VE-V2 growth stage followed by the same at V4 growth stage followed by the same at V8 growth stage; (2) quizalofop-P at 0.64 lb ai/acre (8×) plus 0.25% v/v NIS applied at VE to V2 growth stage followed by the same at V4 growth stage followed by the same at V8 growth stage; (3) quizalofop-P at 1.28 lb ai/acre (16×) plus 0.25% v/v NIS applied at VE to V2 growth stage followed by the same at V4 growth stage followed by the same at V8growth stage; or (4) clethodim at 0.25 lb ai/acre (1×) plus 0.25% v/v NIS applied at V8 growth stage. Plots were visually rated 10-14 days after application for crop injury on a scale of 0 to 100with “0” being none and “100” being complete crop destruction. Tables 14 and 15 show the average injury ratings after herbicide application at V4 or V8 growth stage, respectively.

F1 hybrid maize plants [3] = assay: efficacy field trial with segregating F1 hybrid plants; format: in vivo; settings: for % Injury from V4 2,4-D / % Injury from V8 2,4-D: 2,4-D amine 2× at VE-V2 (plus quizalofop-P 0.5×), V4, V8; for % Injury from V4 Quizalofop / % Injury from V8 Quizalofop: quizalofop-P 2× at VE-V2, V4, V8
Protocol: Ten unique engineered proteins optimized for activity at higher temperatures were selected for maize transformation and analysis in plants. DNA constructs were produced for expressing these engineered proteins with codon usage optimized for monocot expression using methods known to those skilled in the art. Enhancers, promoters, leaders, introns, CTPs, and 3′UTRs were tested in various combinations with the engineered proteins in these DNA constructs. The DNA constructs were used to transform immature maize (LH244) embryos with these vectors using Agrobacterium tumifaciens and standard methods known in the art. Regenerated R0 transgenic plantlets were grown in the green house.
Transgenic R0 maize plants were screened by the application of quizalofop-P (2×) plus 2,4-D (2×) at 7 to 10 days following transplant into plugs (generally corresponding to V3-V4 growth stage). All constructs tested produced plants containing unique events that passed the RO screen. The R0 plants were selfed to generate R1 homozygous seed and the R0 was also used as the male to cross with inbred plants containing maize event MON89034 to generate segregating F1 hybrid seed for efficacy field trials.
An efficacy field trial was conducted with segregating F1 hybrid plants, with 50% hemizygous and 50% null for the transgene. Tolerance to quizalofop-P (2×) plus 2,4-D (2×) was assessed using two herbicide application regimens: (1) quizalofop-P (Assure II) at 0.16 lb ai/acre (2×) plus 0.25% v/v non-ionic surfactant (NIS) applied at VE-V2 growth stage followed by the same at V4 growth stage followed by the same at V8 growth stage and (2) 2,4-D amine at 2 lb ae/acre (2×) plus quizalofop-P at 0.04 lb ai/acre (0.5×) plus 0.25% v/v NIS applied at VE-V2 growth stage followed by 2,4-D amine at 2 lb ae/acre (2×) plus 0.25% v/v NIS applied at V4 growth stage followed by the same at V8 growth stage. The 50% of the plants that were null for transgene were removed by the first quizalofop-P application at VE-V2 growth stage. Plots were visually rated 10-14 days after application for crop injury on a scale of 0 to 100 with “0” being none and “100” being complete crop destruction. […] The percentage injury rating with 2× application of 2,4-D at V8 growth stage ranged from a high of 40% to a low of 0. Similarly, the percentage injury rating with 2× application of quizalofop-P at V8 growth stage ranged from a high of 90% to a low of 0. Variation in injury rating between plants expressing the same protein is likely due to variations in construct design or transgene insertion location.

[4] = 23° C., purified His-tagged protein, standard error in parenthetical
[5] = 23° C., purified His-tagged protein, standard error in parenthetical, read-out: Km Quizalofop
[6] = standard error in parenthetical, NDB = activity not robust enough for kinetic characterization
[7] = standard error in parenthetical, NDB = activity not robust enough for kinetic characterization, read-out: Km 2,4-D

B1: MON-HT55: engineered oxygenase protein, amino acid sequence SEQ ID NO:11 (protein)
chain: MHAALSPLSQRFERIAVQPLTGVLGAEITGVDLREPLDDSTWNEILDAFHTYQVIYFPGQAITNEQHIAFSRRFGPVDPVPLLKSIEGYPEVQMIRREANESGRVIGENWHTDSTFLDAPPAAVVMYAKEIPPYGGDTLFTSMYTAWETLSPTMQATIEGLNVVHSATRVFGSLYQAQNRRFSNTSVKVMDVDAGDRETVHPLVVTHPETGRKGLYVNQVYCQRIEGMSEKESEPLLSFLFAHATKPEFTCRVRWQEGDVLVWDNLCTQHYAVPDYAGKFRYLTRTTVGGVRPAR
- Vmax Quizalofop [1, 4]: 0.44 (−0.04) umol herbicide product mg enzyme-1 min-1
- Km [1, 5]: 320 µM
- Vmax 2,4-D [1, 6]: 0.03 (−0.02) umol herbicide product mg enzyme-1 min-1
- Km [1, 7]: 690 µM
- average injury rating, V8 Growth Stage, 1x Clethodim (F1 hybrid maize plants [2]): 94.5 and 93.3

B2: MON-HT7: engineered oxygenase protein, amino acid sequence SEQ ID NO:34 (protein)
chain: MHAALTPLTNKYRFIDVQPLTGVLGAEITGVDLREPLDDSTWNEILDAFHTYQVIYFPGQAITNEQHIAFSRRFGPVDPVPLLKSIEGYPEVQMIRREANESGRVIGDDWHADSTFLDAPPAAVVMRAIEVPEYGGDTGFLSMYSAWETLSPTMQATIEGLNVVHSATKVFGSLYQATNWRFSNTSVKVMDVDAGDRETVHPLVVTHPVTGRRALYCNQVYCQKIQGMTDAESKSLLQFLYEHATKFDFTCRVRWKKDQVLVWDNLCTMHRSVPDYAGKFRYLTRTTVAGDKPSR
- Vmax for 2,4-D relative to the wild-type enzyme [1]: about half
- Vmax with quizalofop-P greater than the wild-type enzyme ([1]; 23° C.): approximately 40%
- Vmax Quizalofop [1, 4]: 1.94 (−0.12) umol herbicide product mg enzyme-1 min-1
- Km [1, 5]: 330 µM
- Vmax 2,4-D [1, 6]: 0.04 (−0.01) umol herbicide product mg enzyme-1 min-1
- Km [1, 7]: 60 µM
- % Injury from V4 2,4-D (F1 hybrid maize plants [3]; CTP A): 21.6%
- % Injury from V8 2,4-D (F1 hybrid maize plants [3]; CTP A): 16.6%
- % Injury from V4 Quizalofop (F1 hybrid maize plants [3]; CTP A): 31.2%
- % Injury from V8 Quizalofop (F1 hybrid maize plants [3]; CTP A): 5%
- average injury rating, V4 Growth Stage, 4x Quizalofop (F1 hybrid maize plants [2]): 0.8
- average injury rating, V8 Growth Stage, 4x Quizalofop (F1 hybrid maize plants [2]): 1.5
- average injury rating, V4 Growth Stage, 8x Quizalofop (F1 hybrid maize plants [2]): 1.3
- average injury rating, V8 Growth Stage, 8x Quizalofop (F1 hybrid maize plants [2]): 0.8
- average injury rating, V4 Growth Stage, 16x Quizalofop (F1 hybrid maize plants [2]): 3.3
- average injury rating, V8 Growth Stage, 16x Quizalofop (F1 hybrid maize plants [2]): 5.5
- average injury rating, V8 Growth Stage, 1x Clethodim (F1 hybrid maize plants [2]): 93.3

B3: MON-HT1: engineered oxygenase protein, amino acid sequence SEQ ID NO:14 (protein)
chain: B2 chain with L82I, G103S, V105F, A112T, S272A
- Vmax for 2,4-D higher than that of the wild-type enzyme [1]: 9.5 fold
- Vmax for quizalofop-P relative to the wild-type enzyme ([1]; 23° C.): about half
- Vmax Quizalofop [1, 4]: 0.76 (−0.04) umol herbicide product mg enzyme-1 min-1
- Km [1, 5]: 170 µM
- Vmax 2,4-D ([1]; Table 10 series, unit as defined): 1.17 (0.01) umol herbicide product mg enzyme-1 min-1
- Km ([1]; Table 10 series, unit as defined, read-out: Km 2,4-D): 30 µM
- Vmax Quizalofop ([1]; Table 10 series, 23° C., unit as defined): 1.62 (0.05) umol herbicide product mg enzyme-1 min-1
- Km ([1]; Table 10 series, 23° C., unit as defined, read-out: Km Quizalofop): 120 µM
- Vmax 2,4-D [1, 6]: 0.95 (−0.03) umol herbicide product mg enzyme-1 min-1
- Km [1, 7]: 30 µM
- % Injury from V4 2,4-D (F1 hybrid maize plants [3]; CTP A): 7.5%
- % Injury from V8 2,4-D (F1 hybrid maize plants [3]; CTP A): 5.83%
- % Injury from V4 Quizalofop (F1 hybrid maize plants [3]; CTP A): 8.33%
- % Injury from V8 Quizalofop (F1 hybrid maize plants [3]; CTP A): 8.33%
- % Injury from V4 2,4-D (F1 hybrid maize plants [3]; CTP B): 10%
- % Injury from V8 2,4-D (F1 hybrid maize plants [3]; CTP B): 10%
- % Injury from V4 Quizalofop (F1 hybrid maize plants [3]; CTP B): 7.5%
- % Injury from V8 Quizalofop (F1 hybrid maize plants [3]; CTP B): 8.75%
- % Injury from V4 2,4-D (F1 hybrid maize plants [3]; CTP C): 14.09%
- % Injury from V8 2,4-D (F1 hybrid maize plants [3]; CTP C): 11.36%
- % Injury from V4 Quizalofop (F1 hybrid maize plants [3]; CTP C): 0.45%
- % Injury from V8 Quizalofop (F1 hybrid maize plants [3]; CTP C): 0.91%
- % Injury from V4 2,4-D (F1 hybrid maize plants [3]; CTP None): 12.86%
- % Injury from V8 2,4-D (F1 hybrid maize plants [3]; CTP None): 10.71%
- % Injury from V4 Quizalofop (F1 hybrid maize plants [3]; CTP None): 7.14%
- % Injury from V8 Quizalofop (F1 hybrid maize plants [3]; CTP None): 7.86%
- average injury rating, V4 Growth Stage, 4x Quizalofop (F1 hybrid maize plants [2]): 0.0
- average injury rating, V8 Growth Stage, 4x Quizalofop (F1 hybrid maize plants [2]): 2.0
- average injury rating, V4 Growth Stage, 4x Quizalofop (F1 hybrid maize plants [2]; listed as MON-HT1 (no CTP)): 5.8
- average injury rating, V8 Growth Stage, 4x Quizalofop (F1 hybrid maize plants [2]; listed as MON-HT1 (no CTP)): 3.3
- average injury rating, V4 Growth Stage, 8x Quizalofop (F1 hybrid maize plants [2]): 0.8
- average injury rating, V8 Growth Stage, 8x Quizalofop (F1 hybrid maize plants [2]): 2.0
- average injury rating, V4 Growth Stage, 8x Quizalofop (F1 hybrid maize plants [2]; listed as MON-HT1 (no CTP)): 11.3
- average injury rating, V8 Growth Stage, 8x Quizalofop (F1 hybrid maize plants [2]; listed as MON-HT1 (no CTP)): 7.5
- average injury rating, V4 Growth Stage, 16x Quizalofop (F1 hybrid maize plants [2]): 4.5
- average injury rating, V8 Growth Stage, 16x Quizalofop (F1 hybrid maize plants [2]): 5.5
- average injury rating, V4 Growth Stage, 16x Quizalofop (F1 hybrid maize plants [2]; listed as MON-HT1 (no CTP)): 18.8
- average injury rating, V8 Growth Stage, 16x Quizalofop (F1 hybrid maize plants [2]; listed as MON-HT1 (no CTP)): 16.3
- average injury rating, V8 Growth Stage, 1x Clethodim (F1 hybrid maize plants [2]): 93.3
- average injury rating, V8 Growth Stage, 1x Clethodim (F1 hybrid maize plants [2]; listed as MON-HT1 (no CTP)): 94.5
